The target in assay [1] is TrkA endogenously expressed in PC12 cells (UniProt P35739). Nature of the assay: cell-based or functional assay.
In assay [2] the target is TrkAK538A. Put plainly: cell-based or functional assay.

Sequence of TrkA endogenously expressed in PC12 cells (P35739 33-799 limits assumed): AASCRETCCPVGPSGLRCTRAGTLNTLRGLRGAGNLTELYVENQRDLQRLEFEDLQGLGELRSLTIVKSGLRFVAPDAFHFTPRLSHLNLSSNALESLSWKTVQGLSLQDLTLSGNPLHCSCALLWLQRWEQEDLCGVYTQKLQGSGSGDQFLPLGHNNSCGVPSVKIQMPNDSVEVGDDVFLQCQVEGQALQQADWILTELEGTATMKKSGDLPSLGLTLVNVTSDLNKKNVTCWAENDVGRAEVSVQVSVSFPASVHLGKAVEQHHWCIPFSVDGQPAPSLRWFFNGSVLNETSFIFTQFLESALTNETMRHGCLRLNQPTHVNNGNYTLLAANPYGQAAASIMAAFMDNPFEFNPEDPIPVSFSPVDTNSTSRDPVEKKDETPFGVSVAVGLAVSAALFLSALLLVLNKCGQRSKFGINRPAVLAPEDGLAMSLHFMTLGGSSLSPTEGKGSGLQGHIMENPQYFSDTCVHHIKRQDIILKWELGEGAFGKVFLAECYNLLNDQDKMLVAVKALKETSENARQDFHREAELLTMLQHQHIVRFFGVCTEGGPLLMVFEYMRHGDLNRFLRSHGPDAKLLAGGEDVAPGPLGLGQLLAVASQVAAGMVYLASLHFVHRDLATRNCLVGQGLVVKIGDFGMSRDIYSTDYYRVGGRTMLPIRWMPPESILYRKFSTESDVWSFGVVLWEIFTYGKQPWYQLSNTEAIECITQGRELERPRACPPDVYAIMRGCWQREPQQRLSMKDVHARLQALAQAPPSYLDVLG

In turn, “p75^ICD-YFP (from UniProt P08138 273-427) (receptor)” yielded a neurite outgrowth of PC12 cells overexpressing the construct, 100 ng/ml NGF, 5 days in assay [1] of 60%. The substance further displayed a neurite outgrowth of PC12 cells co-expressing p75^ICD and TrkAK538A after NGF treatment in assay [2] of 10 to 40 µm.
